Test results published in patent US20190271021A1.
Like-named read-outs stand apart in the source and are kept apart here.

What was measured:
[1] = molecular target: human TrkB on CHO cells (CHO-K1-hTrkB/pSRE-Luc) (human) (UniProt Q16620); assay: cell-based or functional assay
[2] = molecular target: human TrkB on CHO cells (CHO-K1-hTrkB/pSRE-Luc) (human) (UniProt Q16620); assay: cell-based or functional assay; remark: listed apart in the source

Sequence of human TrkB on CHO cells (CHO-K1-hTrkB/pSRE-Luc) (human) (Q16620 32-822): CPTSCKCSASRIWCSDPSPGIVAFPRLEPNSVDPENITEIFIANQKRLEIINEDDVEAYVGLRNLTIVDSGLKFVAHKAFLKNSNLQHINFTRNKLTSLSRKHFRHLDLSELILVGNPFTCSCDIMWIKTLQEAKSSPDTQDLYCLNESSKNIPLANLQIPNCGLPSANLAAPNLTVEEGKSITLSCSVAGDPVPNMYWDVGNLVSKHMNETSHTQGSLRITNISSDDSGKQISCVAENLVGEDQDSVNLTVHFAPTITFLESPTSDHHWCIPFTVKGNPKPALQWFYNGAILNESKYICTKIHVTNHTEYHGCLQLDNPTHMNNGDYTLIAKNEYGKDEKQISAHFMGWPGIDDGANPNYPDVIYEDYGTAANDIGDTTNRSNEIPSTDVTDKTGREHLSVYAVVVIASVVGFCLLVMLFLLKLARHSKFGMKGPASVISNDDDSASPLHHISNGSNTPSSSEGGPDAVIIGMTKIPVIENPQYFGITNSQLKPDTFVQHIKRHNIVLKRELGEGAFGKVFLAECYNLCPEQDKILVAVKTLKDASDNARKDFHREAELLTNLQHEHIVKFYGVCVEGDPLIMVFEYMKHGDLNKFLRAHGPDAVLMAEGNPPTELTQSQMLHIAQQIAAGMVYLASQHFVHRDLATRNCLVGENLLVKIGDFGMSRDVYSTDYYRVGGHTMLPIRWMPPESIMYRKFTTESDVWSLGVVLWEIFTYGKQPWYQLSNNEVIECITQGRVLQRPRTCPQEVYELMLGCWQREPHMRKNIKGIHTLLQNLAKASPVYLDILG

BDNF activity in TrkBluciferase assay, EC50 [nM] [1]: 3 nM | BDNF activity in TrkBluciferase assay, EC50 [% or nM] [2]: 100% | BDNF activity in TrkBluciferase assay, EC50 [nM] [2]: 3.4 nM | relative BDNF activity in TrkB luciferase assay, EC50 [%] [2]: 100%
B1: pre-pro-BDNF(-RGR)-T7-His6 (ligand)
chain: HSDPARRGELSVCDSISEWVTAADKKTAVDMSGGTVTVLEKVPVSKGQLKQYFYETKCNPMGYTKEGCRGIDKRHWNSQCRTTQSYVRALTMDSKKRIGWRFIRIDTSCVCTLTIKGSGMASMTGGQQMGHHHHHH
